The data set concerns Escherichia coli TOP10. As to the kind of experiment: shrunken log2 fold change of peptide-encoding DNA abundance (4.5 h post-induction vs induction); higher = less antimicrobial activity (less host growth inhibition). Particulars: time post-induction: 4.5 h; library: site-saturation at positions 5, 18, 19, 20.
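Also: peptides expressed intracellularly from a pBAD plasmid library in pooled LB shake-flask culture, induced with 0.3% L-arabinose, DNA abundance read by NGS, three biological replicates, DESeq2 with apeglm shrinkage.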

RRIRFRPPRLPRPRPRPRNNPRP: the “shrunken log2 fold change” value was -0.381.

Consider RRIRWRPPRLPRPRPRPQFQPRP, for which the “shrunken log2 fold change” value is -0.523.

Take RRIRNRPPRLPRPRPRPWNYPRP: the “shrunken log2 fold change” value is -0.101.

For the sequence RRIRFRPPRLPRPRPRPYFGPRP, the “shrunken log2 fold change” value was -1.15.

For the sequence RRIRYRPPRLPRPRPRPYHDPRP, the “shrunken log2 fold change” value was -0.386.

For RRIRWRPPRLPRPRPRPPQYPRP, the “shrunken log2 fold change” value stood at 0.0672.

Regarding RRIRLRPPRLPRPRPRPYEWPRP, the “shrunken log2 fold change” value is -0.00151.

Turning to RRIRGRPPRLPRPRPRPRYTPRP, the “shrunken log2 fold change” value was 0.178.

In the case of RRIRNRPPRLPRPRPRPFQHPRP, the “shrunken log2 fold change” value was -0.00968.

In the case of RRIRYRPPRLPRPRPRPKFHPRP, the “shrunken log2 fold change” value is -1.15.

As to RRIRRRPPRLPRPRPRPYPHPRP, the “shrunken log2 fold change” value is -0.181.

Take RRIRHRPPRLPRPRPRPWFSPRP: the “shrunken log2 fold change” value was -0.294.

As for RRIRKRPPRLPRPRPRPWNEPRP, the “shrunken log2 fold change” value is -0.0249.

Turning to RRIRGRPPRLPRPRPRPELSPRP, the “shrunken log2 fold change” value turned out to be 0.169.

In the case of RRIRTRPPRLPRPRPRPLSSPRP, the “shrunken log2 fold change” value was -0.0339.

Turning to RRIRCRPPRLPRPRPRPWHCPRP, the “shrunken log2 fold change” value was -0.0285.

With RRIRDRPPRLPRPRPRPCCIPRP, the “shrunken log2 fold change” value stood at 0.168.

In the case of RRIRTRPPRLPRPRPRPPWTPRP, the “shrunken log2 fold change” value came out at 0.167.

Regarding RRIRQRPPRLPRPRPRPKISPRP, the “shrunken log2 fold change” value is -0.144.

As to RRIRIRPPRLPRPRPRPINAPRP, the “shrunken log2 fold change” value is -0.431.

Turning to RRIRTRPPRLPRPRPRPNRAPRP, the “shrunken log2 fold change” value was -0.244.

For the sequence RRIRDRPPRLPRPRPRPQITPRP, the “shrunken log2 fold change” value was -0.0201.

In the case of RRIRDRPPRLPRPRPRPRHSPRP, the “shrunken log2 fold change” value was -0.043.

Regarding RRIRIRPPRLPRPRPRPYMCPRP, the “shrunken log2 fold change” value is -0.318.

For the sequence RRIRKRPPRLPRPRPRPLRPPRP, the “shrunken log2 fold change” value stood at 1.01.

For RRIRLRPPRLPRPRPRPPARPRP, the “shrunken log2 fold change” value was found to be 0.789.

Consider RRIRRRPPRLPRPRPRPIWQPRP, for which the “shrunken log2 fold change” value was 0.0175.

In the case of RRIRHRPPRLPRPRPRPAWIPRP, the “shrunken log2 fold change” value was -0.0987.

For the sequence RRIRGRPPRLPRPRPRPYPPPRP, the “shrunken log2 fold change” value is -0.0824.

As for RRIRPRPPRLPRPRPRPLGVPRP, the “shrunken log2 fold change” value was found to be 0.361.

For RRIRARPPRLPRPRPRPPPSPRP, the “shrunken log2 fold change” value was 1.26.

As for RRIRVRPPRLPRPRPRPWWLPRP, the “shrunken log2 fold change” value was -0.0366.

On to RRIRSRPPRLPRPRPRPIVKPRP, for which the “shrunken log2 fold change” value is -0.143.

Turning to RRIRVRPPRLPRPRPRPEMMPRP, the “shrunken log2 fold change” value stood at 0.0629.

Take RRIRSRPPRLPRPRPRPLSGPRP: the “shrunken log2 fold change” value is -0.0801.

Take RRIRPRPPRLPRPRPRPYKGPRP: the “shrunken log2 fold change” value is -0.437.

For RRIRARPPRLPRPRPRPVRTPRP, the “shrunken log2 fold change” value turned out to be 1.06.

RRIRIRPPRLPRPRPRPKMSPRP: the “shrunken log2 fold change” value is -0.327.

Take RRIRCRPPRLPRPRPRPQMMPRP: the “shrunken log2 fold change” value was -0.346.

With RRIRYRPPRLPRPRPRPIAPPRP, the “shrunken log2 fold change” value was -0.0464.

As to RRIRFRPPRLPRPRPRPNLMPRP, the “shrunken log2 fold change” value was -0.144.

On to RRIRLRPPRLPRPRPRPRYFPRP, for which the “shrunken log2 fold change” value was -0.319.

RRIRMRPPRLPRPRPRPFTWPRP: the “shrunken log2 fold change” value is 0.0653.

For the sequence RRIRQRPPRLPRPRPRPKKLPRP, the “shrunken log2 fold change” value is -0.296.

Take RRIRYRPPRLPRPRPRPQLIPRP: the “shrunken log2 fold change” value was -0.3.

As to RRIRYRPPRLPRPRPRPQREPRP, the “shrunken log2 fold change” value is -0.00996.

Turning to RRIRRRPPRLPRPRPRPISLPRP, the “shrunken log2 fold change” value is -0.224.

For RRIRYRPPRLPRPRPRPPIGPRP, the “shrunken log2 fold change” value was -0.0423.

RRIRARPPRLPRPRPRPGEDPRP: the “shrunken log2 fold change” value was determined as 0.814.

In the case of RRIRHRPPRLPRPRPRPYVRPRP, the “shrunken log2 fold change” value amounted to 0.017.

Take RRIRDRPPRLPRPRPRPDVPPRP: the “shrunken log2 fold change” value was determined as 0.221.

Consider RRIRNRPPRLPRPRPRPCNDPRP, for which the “shrunken log2 fold change” value was -0.274.

For RRIRLRPPRLPRPRPRPHNIPRP, the “shrunken log2 fold change” value was -0.049.

Turning to RRIRHRPPRLPRPRPRPCSTPRP, the “shrunken log2 fold change” value was -0.337.

Regarding RRIRGRPPRLPRPRPRPTTYPRP, the “shrunken log2 fold change” value amounted to 0.214.

In the case of RRIRDRPPRLPRPRPRPLERPRP, the “shrunken log2 fold change” value came out at 0.464.

As for RRIRARPPRLPRPRPRPKEPPRP, the “shrunken log2 fold change” value turned out to be 0.991.

As for RRIRLRPPRLPRPRPRPVRPPRP, the “shrunken log2 fold change” value was -0.0457.

Turning to RRIRSRPPRLPRPRPRPSANPRP, the “shrunken log2 fold change” value was -0.0142.

For RRIRFRPPRLPRPRPRPEERPRP, the “shrunken log2 fold change” value was determined as 0.477.

As for RRIRDRPPRLPRPRPRPSKYPRP, the “shrunken log2 fold change” value is -0.455.

On to RRIRWRPPRLPRPRPRPKAHPRP, for which the “shrunken log2 fold change” value turned out to be 0.197.

In the case of RRIRSRPPRLPRPRPRPERVPRP, the “shrunken log2 fold change” value came to 0.21.

Turning to RRIRKRPPRLPRPRPRPHSDPRP, the “shrunken log2 fold change” value amounted to 0.0765.

For the sequence RRIRERPPRLPRPRPRPAIEPRP, the “shrunken log2 fold change” value was -0.136.

Regarding RRIRIRPPRLPRPRPRPQYWPRP, the “shrunken log2 fold change” value was -0.361.

As to RRIRDRPPRLPRPRPRPGIIPRP, the “shrunken log2 fold change” value is -0.171.

In the case of RRIRHRPPRLPRPRPRPQCLPRP, the “shrunken log2 fold change” value is -0.0192.

With RRIRVRPPRLPRPRPRPGTLPRP, the “shrunken log2 fold change” value was -0.174.

As for RRIRDRPPRLPRPRPRPPCLPRP, the “shrunken log2 fold change” value was -0.264.

For the sequence RRIRLRPPRLPRPRPRPWFPPRP, the “shrunken log2 fold change” value is -0.157.

In the case of RRIRCRPPRLPRPRPRPNHVPRP, the “shrunken log2 fold change” value was -0.248.

Turning to RRIRCRPPRLPRPRPRPIVLPRP, the “shrunken log2 fold change” value is -0.456.

With RRIRLRPPRLPRPRPRPNGMPRP, the “shrunken log2 fold change” value is -0.0765.

Turning to RRIRKRPPRLPRPRPRPVCHPRP, the “shrunken log2 fold change” value was 0.199.

RRIRYRPPRLPRPRPRPFIPPRP: the “shrunken log2 fold change” value was -0.296.

With RRIRMRPPRLPRPRPRPHVAPRP, the “shrunken log2 fold change” value came out at 0.00497.

As to RRIRERPPRLPRPRPRPHDDPRP, the “shrunken log2 fold change” value was -0.147.

With RRIRWRPPRLPRPRPRPYKEPRP, the “shrunken log2 fold change” value is -0.387.

On to RRIRRRPPRLPRPRPRPHCMPRP, for which the “shrunken log2 fold change” value is -0.329.

Turning to RRIRGRPPRLPRPRPRPYDEPRP, the “shrunken log2 fold change” value worked out at 0.0538.

On to RRIRFRPPRLPRPRPRPCKYPRP, for which the “shrunken log2 fold change” value was -0.373.

For RRIRHRPPRLPRPRPRPICCPRP, the “shrunken log2 fold change” value amounted to 0.055.

RRIRQRPPRLPRPRPRPRYIPRP: the “shrunken log2 fold change” value is -0.706.

RRIRMRPPRLPRPRPRPPFMPRP: the “shrunken log2 fold change” value came to 0.296.

Turning to RRIRNRPPRLPRPRPRPSCLPRP, the “shrunken log2 fold change” value is -0.4.

For RRIRERPPRLPRPRPRPTSRPRP, the “shrunken log2 fold change” value was 0.249.

RRIRWRPPRLPRPRPRPTHCPRP: the “shrunken log2 fold change” value stood at 0.213.

As to RRIRSRPPRLPRPRPRPQFVPRP, the “shrunken log2 fold change” value is -0.184.

For RRIRARPPRLPRPRPRPRCGPRP, the “shrunken log2 fold change” value amounted to 0.609.

RRIRCRPPRLPRPRPRPTRPPRP: the “shrunken log2 fold change” value is 0.938.

With RRIRPRPPRLPRPRPRPNDVPRP, the “shrunken log2 fold change” value is -0.206.

As for RRIRRRPPRLPRPRPRPFALPRP, the “shrunken log2 fold change” value is -0.00461.

For RRIRSRPPRLPRPRPRPWRSPRP, the “shrunken log2 fold change” value stood at 0.00174.

In the case of RRIRQRPPRLPRPRPRPYPQPRP, the “shrunken log2 fold change” value is -0.00227.

As for RRIRCRPPRLPRPRPRPILDPRP, the “shrunken log2 fold change” value is -0.122.

Take RRIRQRPPRLPRPRPRPLFIPRP: the “shrunken log2 fold change” value was -0.673.

Consider RRIRWRPPRLPRPRPRPCRIPRP, for which the “shrunken log2 fold change” value was -0.113.

With RRIRLRPPRLPRPRPRPFNEPRP, the “shrunken log2 fold change” value was -0.255.

In the case of RRIRLRPPRLPRPRPRPCWFPRP, the “shrunken log2 fold change” value is -0.21.

For the sequence RRIRIRPPRLPRPRPRPVPPPRP, the “shrunken log2 fold change” value was found to be 0.144.

Regarding RRIRDRPPRLPRPRPRPFRWPRP, the “shrunken log2 fold change” value was 0.317.

For RRIRQRPPRLPRPRPRPNGEPRP, the “shrunken log2 fold change” value came to 0.0404.

Consider RRIRGRPPRLPRPRPRPKGIPRP, for which the “shrunken log2 fold change” value was found to be 0.529.

RRIRIRPPRLPRPRPRPQATPRP: the “shrunken log2 fold change” value is -0.24.

For RRIRRRPPRLPRPRPRPGLHPRP, the “shrunken log2 fold change” value came out at 0.0196.

In the case of RRIRQRPPRLPRPRPRPITRPRP, the “shrunken log2 fold change” value was determined as 0.0297.

For RRIRKRPPRLPRPRPRPILFPRP, the “shrunken log2 fold change” value is -0.0861.

Consider RRIRLRPPRLPRPRPRPGWSPRP, for which the “shrunken log2 fold change” value is 0.0496.

On to RRIRIRPPRLPRPRPRPEVTPRP, for which the “shrunken log2 fold change” value is -0.0113.

On to RRIRVRPPRLPRPRPRPSMHPRP, for which the “shrunken log2 fold change” value is -0.177.

For the sequence RRIRDRPPRLPRPRPRPPVDPRP, the “shrunken log2 fold change” value worked out at 0.361.

Turning to RRIRYRPPRLPRPRPRPRQIPRP, the “shrunken log2 fold change” value was -0.137.

As for RRIRERPPRLPRPRPRPRLVPRP, the “shrunken log2 fold change” value was -0.0143.

For the sequence RRIRVRPPRLPRPRPRPANIPRP, the “shrunken log2 fold change” value is -0.156.

For RRIRTRPPRLPRPRPRPDAYPRP, the “shrunken log2 fold change” value was -0.134.

As to RRIRNRPPRLPRPRPRPKQRPRP, the “shrunken log2 fold change” value worked out at 0.432.

As to RRIRWRPPRLPRPRPRPLGWPRP, the “shrunken log2 fold change” value worked out at 2.31.

For the sequence RRIRYRPPRLPRPRPRPPYCPRP, the “shrunken log2 fold change” value is -0.287.

Turning to RRIRMRPPRLPRPRPRPRTYPRP, the “shrunken log2 fold change” value was -0.00485.

On to RRIRNRPPRLPRPRPRPTCCPRP, for which the “shrunken log2 fold change” value was -0.0383.

Regarding RRIRDRPPRLPRPRPRPYVKPRP, the “shrunken log2 fold change” value is -0.313.

Consider RRIRGRPPRLPRPRPRPQHIPRP, for which the “shrunken log2 fold change” value is -0.281.

With RRIRSRPPRLPRPRPRPSCHPRP, the “shrunken log2 fold change” value was -0.245.

On to RRIRNRPPRLPRPRPRPKVMPRP, for which the “shrunken log2 fold change” value is -0.0516.

Source of the values: the supplement of paper PMC9112550, “Optimization of the antimicrobial peptide Bac7 by deep mutational scanning” (BMC Biology, 2022).
